Reference: patent publication US20260258115A1 (MAPP BIOPHARMACEUTICAL, published 2026)

B1: ADI-19500 (antibody, V domains shown)
VH: EVQLVESGGGLVQPGGSLRLSCAASGFTFSSYSMNWVRQAPGKGLEWVSYISSSSSTIYYADSVKGRFTISRDNAKNSLYLQMNSLRAEDTAVYYCARGNTVTTFLDYWGQGTLVTVSS
VL: DIRLTQSPSSFSASTGDRVTITCRASQGISSYLAWYQQKPGKAPKLLIYAASTLQSGVPSRFSGSGSGTDFTLTISCLQSEDFATYYCQQYYSYPPLTFGGGTKVDIK
notes: full-length IgG
B2: ADI-19491 (antibody, V domains shown)
VH: QVQLVQSGPTLVKPTQTLTLTCTFSGFSLSTSGVGVGWIRQPPGKALEWLALIYWDDDKRYSPSLKSRLTITKDTSKNQVVLTMTNMDPVDTATYYCAHRRATTVTTGYFDYWGQGTLVTVSS
VL: QSVLTQPPSVSGAPGQRVTISCTGSSSNIGAGYDVHWYQQLPGTAPKLLIYGNSNRPSGVPDRFSGSKSGTSASLAITGLQAEDEADYYCQSYDSSLSGHYVFGTGTKVTVL
notes: full-length IgG
B3: ADI-24801 (antibody, V domains shown)
VH: QVQLVQSGAEVKKPGASVKVSCKASGYTFTSYGISWVRQAPGQGLEWMGWISAYNGNTNYAQKLQGRVTMTTDTSTSTAYMELRSLRSDDTAVYYCARVTARTFGGIRKGYYYGMDVWGQGTTVTVSS
VL: not shown
notes: full-length IgG; also called Ab 368
B4: ADI-19496 (antibody, V domains shown)
VH: EVQLVESGGGVVQPGGSLRLSCAASGFTFSSYGMHWVRQAPGKGLEWVAFIRYDGSNKYYADSVKGRFTISRDNSKSTLYLQMNSLRAEDTAVYYCAKDATFGYSSSWYNFDYWGQGTLVTVSS
VL: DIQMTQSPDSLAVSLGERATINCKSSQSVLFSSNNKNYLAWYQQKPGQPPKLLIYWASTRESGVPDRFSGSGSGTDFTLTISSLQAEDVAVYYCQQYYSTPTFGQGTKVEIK
notes: full-length IgG; also called Ab 198
B5: ADI-24824 (antibody, V domains shown)
VH: QVQLQESGPGLVKPSETLSLTCTVSGGSISSYYWSWIRQPPGKGLEWIGYIYYSGSTNYNPSLKSRVTISVDTSKNQFSLKLSSVTAADTAVYYCAISLYGDYRTDAFDIWGQGTTVTVSS
VL: EIVLTQSPSSFSASTGDRVTITCRASQGISSYLAWYQQKPGKAPKLLIYAASTLQSGVPSRFSGSGSGTDFTLTISCLQSEDFATYYCQQYYSYPLFGGGTKVEIK
B6: ADI-19444 (antibody, V domains shown)
VH: QVQLVQSGAEVKKPGASVKVSCKASGYTFTSYGISWVRQAPGQGLEWMGWISAYNGNTNYAQKLQGRVTMTTDTSTSTAYMELRSLRSDDTAVYYCARDEALVGATFDYWGQGTLVTVSS
VL: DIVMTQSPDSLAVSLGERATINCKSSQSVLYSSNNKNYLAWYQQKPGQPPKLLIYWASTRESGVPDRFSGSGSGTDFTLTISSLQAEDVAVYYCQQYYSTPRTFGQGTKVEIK
notes: full-length IgG
B7: ADI-19463 (antibody, V domains shown)
VH: QVQLQESGPGLVKPSQTLSLTCTVSGGSISSGDYYWSWIRQPPGKGLEWIGYIYYSGSTYYNPSLKSRVTISVDTSKNQFSLKLSSVTAADTAVYYCARDRLGIFDYWGQGTLVTVSS
VL: not shown
notes: full-length IgG
B8: ADI-19468 (antibody, V domains shown)
VH: EVQLVESGPGLVKPSETLSLTCTVSGGSISSSSYYWGWIRQPPGKGLEWIGSIYYSGSTYYNPSLKSRVTISVDTSKNQFSLKLSSVTAADTAVYYCARRDGYNYGWFDPWGQGTLVTVSS
VL: NFMLTQPHSVSESPGKTVTISCTGSSGSIASNYVQWYQQRPGSAPTTVIYEDNQRPSGVPDRFSGSIDSSSNSASLTISGLKTEDEADYYCQSYDSSNVVFGGGTKVTVL
notes: full-length IgG
B9: ADI-19474 (antibody, V domains shown)
VH: QVQLVQSGAEVKKPGESLKISCKGSGYSFTSYWIGWVRQMPGKGLEWMGIIYPGDSDTRYSPSFQGQVTISADKSISTAYLQWSSLKASDTAMYYCARPYSGSYYAFDIWGQGTTVTVSS
VL: NFMLTQPHSVSESPGKTVTISCTRSSGSIASNYVQWYQQRPGSSPTTVIYEDNQRPSGVPDRFSGSIDSSSNSASLTISGLKTEDEADYYCQSYDSSNQVFGGGTKLTVL
notes: full-length IgG
B10: ADI-19471 (antibody, V domains shown)
VH: EVQLVESGGGLVQPGGSLRLSCSASGFTFSSYAMHWVRQAPGKGLEYVSAISSNGGSTYYADSVKGRFTISRDNSKNTLYLQMSSLRAEDTAVYYCVKADQGSSGWFPDYWGQGTLVTVSS
VL: NFMLTQPHSVSESPGKTVTISCTRSSGSIASNYVQWYQQRPGSSPTTVIYEDNQRPSGVPDRFSGSIDSSSNSASLTISGLKTEDEADYYCQSYDSSNWVFGGGTKLTVL
notes: full-length IgG
B11: ADI-24816 (antibody, V domains shown)
VH: QVQLVQSGAEVKKPGASVKVSCKASGYTFTSYDINWVRQATGQGLEWMGWMNPNSGNTGYAQKFQGRVTMTRNTSISTAYMELSSLRSEDTAVYYCARGIPGYYYYGMDVWGQGTTVTVSS
VL: not shown
notes: full-length IgG
B12: ADI-19495 (antibody, V domains shown)
VH: QVQLQESGPGLVKPSETLSLTCTVSGGSISSYYWSWIRQPPGKGLEWIGYIYTSGSTNYNPSLKSRVTISVDTSKNQFSLKLSSVTAADTAVYYCARVGSYYDLQHWGQGTLVTVSS
VL: DIQLTQSPSSVSASVGDRVTITCRASQGISSWLAWYQQKPGKAPKLLIYAASSLQSGVPSRFSGSGSGTDFTLTISSLQPEDFATYYCQQANSFPLTFGGGTKVEIK
B13: ADI-19469 (antibody, V domains shown)
VH: QVQLQESGPGLVKPSETLSLTCAVSGYSISSGYYWGWIRQPPGKGLEWIGSIYHSGSTYYNPSLKSRVTISVDTSKNQFSLKLSSVTAADTAVYYCARWTVMYYFDYWGQGTLVTVSS
VL: EIVMTQSPATLSLSPGERATLSCRASQSVSSYLAWYQQKPGQAPRLLIYDASNRATGIPARFSGSGSGTDFTLTISSLEPEDFAVYYCQQRSNWPTFGGGTKLEIK
notes: full-length IgG
B14: ADI-24837 (antibody, V domains shown)
VH: QVQLQESGPGLVKPSETLSLTCTVSGGSISSYYWSWIRQPPGKGLEWIGYIYYSGSTNYNPSLKSRVTISVDTSKNQFSLKLSSVTAADTAVYYCARAIYYYDSSGYYYVGDAFDIWGQGTTVTVSS
VL: QSVLTQPPSVSAAPGQKVTISCSGSSSNIGNNYVSWYQQLPGTAPKLLIYENNKRPSGIPDRFSGSKSGTSATLGITGLQTGDEADYYCGTWDSSLSAGVFGGGTKLTVL
B15: ADI-25503 (antibody, V domains shown)
VH: EVQLLESGAEVKKPGSSVKVSCKASGGTFSSYAISWVRQAPGQGLEWMGGIIPIFGTANYAQKFQGRVTITADESTSTAYMELSSLRSEDTAVYYCARSRYSGSYYYYYGMDVWGQGTTVTVSS
VL: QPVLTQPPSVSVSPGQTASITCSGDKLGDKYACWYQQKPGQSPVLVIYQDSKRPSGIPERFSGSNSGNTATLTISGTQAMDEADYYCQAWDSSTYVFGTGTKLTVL
notes: full-length IgG
B16: ADI-25514 (antibody, V domains shown)
VH: EVQLVQSGAEVKKPGSSVKVSCKASGGTFSSYAISWVRQAPGQGLEWMGGIIPIFGTANYAQKFQGRVTITADESTSTAYMELSSLRSEDTAVYYCARSRYSGSYYYYYGMDVWGQGTTVTVSS
VL: not shown
notes: full-length IgG
B17: ADI-24830 (antibody, V domains shown)
VH: QVQLVQSGAEVKKPGSSVKVSCKASGGTFSSYAISWVRQAPGQGLEWMGGIIPIFGTANYAQKFQGRVTITADESTSTAYMELSSLRSEDTAVYYCARGGSMVRGLGFDPWGQGTLVTVSS
VL: not shown
notes: full-length IgG
B18: ADI-24813 (antibody, V domains shown)
VH: EVQLLESGGGLVQPGRSLRLSCAASGFTFDDYAMHWVRQAPGKGLEWVSGISWNSGSIGYADSVKGRFTISRDNAKNSLYLQMNSLRAEDTALYYCAKDGDSSSWRDSNFDYWGQGTLVTVSS
VL: QSVLTQPPSVSGAPGQRVTISCTGSSSNIGAGYDVHWYQQLPGTAPKLLIYGNSNRPSGVPDRFSGSKSGTSASLAITGLQAEDEADYYCQSYDSSLSGVVFGGGTKLTVL
notes: full-length IgG
B19: ADI-22758 (antibody, V domains shown)
VH: QVQLVESGGGLVKPGGSLRLSCAASGFSISSYSMNWVRQAPGKGLEWVSSISGSSSYIYYGDSVKGRFTISRDNARNSLYLQMNSLRAEDTAVYYCARGDIAAAGTITYYFAHWGQGTLVTVSS
VL: QSVLTQPPSVSGAPGQRVTISCTGSSSNIGAGYDVHWYQQLTGTAPKLLIFGNNNRPSGVPDRFSGSKSGTSASLAITGLQAEDEADYYCQSYDSSLSGAVFGGGTQLTVL
notes: full-length IgG
B20: ADI-24822 (antibody, V domains shown)
VH: QVQLVESGGGLVKPGGSLRLSCAASGFTFSSYSMNWVRQAPGKGLEWVSSISSSSSYIYYADSVKGRFTISRDNAKNSLYLQMNSLRAEDTAVYYCARDSGLGSRGDAFDIWGQGTMVTVSS
VL: QSVLTQPPSVSGAPGQRVTISCTGSSSNIGAGYDVHWYQQLPGTAPKLLIYGNSNRPSGVPDRFSGSKSGTSASLAITGLQAEDEADYYCQSYDSSLSGYVFGTGTKVTVL
notes: full-length IgG
B21: ADI-19473 (antibody, V domains shown)
VH: EVQLVESGAEVKKPGESLKISCKGSGYSFTSYWIGWVRQMPGKGLEWMGIIYPGDSDTRYSPSFQGQVTISADKSISTAYLQWSSLKASDTAMYYCARLIAAAGIDYWGQGTLVTVSS
VL: NFMLTQPHSVSESPGKTVTISCTRSSGSIASNYVQWYQQRPGSSPTTVIYEDNQRPSGVPDRFSGSIDSSSNSASLTISGLKTEDEADYYCQSYDSSNIWVFGGGTKVTVL
notes: full-length IgG
B22: ADI-19499 (antibody, V domains shown)
VH: EVQLLESGPGLVKPSETLSLTCTVSGGSISSSSYYWGWIRQPPGKGLEWIGSIYYSGSTYYNPSLKSRVTISVDTSKNQFSLKLSSVTAADTAVYYCAVLLYSSSSFDYWGQGTLVTVSS
VL: NFMLTQPHSVSESPGKTVTISCTRSSGSIASNYVQWYQQRPGSSPTTVIYEDNQRPSGVPDRFSGSIDSSSNSASLTISGLKTEDEADYYCQSYDSSNQAVFGGGTQLTVL
notes: full-length IgG; also called Ab 201
B23: ADI-19492 (antibody, V domains shown)
VH: QVQLVQSGAEVKKPGESLKISCKGSGYRFTSYWIGWVRQMPGKGLEWMGIIYPGDSDTRYSPSFQGQVTISADKSISTAYLQWSSLKASDTAMYYCARSGSHYAFDLWGQGTMVTVSS
VL: NFMLTQPHSVSESPGKTVTISCTRSSGNIASNYVQWYQQRPGSSPTTVLYEDNQRPSGVPDRFSGSIDSSSNSASLTISGLKTEDEADYYCQSYDSSNPWVFGGGTKLTVL
notes: full-length IgG
B24: ADI-19502 (antibody, V domains shown)
VH: EVQLVESGGGVVQPGGSLRLSCAASGFTFSSDGMHWVRQAPGKGLEWVAFIQYDGTNKYYVDSVKGRFTISRDNSKNTLYLQMNSLRAEDTAVYYCAKDQGFRYSSSWYAFDIWGQGTMVTVSS
VL: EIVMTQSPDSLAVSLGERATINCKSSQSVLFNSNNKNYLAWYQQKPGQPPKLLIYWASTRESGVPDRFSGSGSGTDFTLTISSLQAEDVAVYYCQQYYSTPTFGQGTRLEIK
notes: full-length IgG
B25: ADI-24843 (antibody, V domains shown)
VH: EVQLVESGPGLVKPSQTLSLTCTVSGGSISSGDYYWSWIRQPPGKGLEWIGYIYYSGSTYYNPSLKSRVTISVDTSKNQFSLKLSSVTAADTAVYYCARESIVGAVDYWGQGTLVTVSS
VL: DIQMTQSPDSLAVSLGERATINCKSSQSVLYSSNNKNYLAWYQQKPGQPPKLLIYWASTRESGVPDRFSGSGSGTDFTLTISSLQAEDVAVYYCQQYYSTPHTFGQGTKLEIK
notes: full-length IgG; also called Ab 405

Target: T1, RSV postfusion F (postF), subtype A (respiratory syncytial virus subtype A, UniProt P03420 26-513)
T1 construct: also called Postfusion subtype A; F deltaFP
Assay: BLI

Binder | binding result
B1 | no binding
B2 | no binding
B3 | no binding
B4 | no binding
B5 | no binding
B6 | no binding
B7 | no binding
B8 | no binding
B9 | no binding
B10 | no binding
B11 | no binding
B12 | no binding
B13 | no binding
B14 | no binding
B15 | no binding
B16 | no binding
B17 | no binding
B18 | no binding
B19 | no binding
B20 | no binding
B21 | no binding
B22 | no binding
B23 | no binding
B24 | no binding
B25 | no binding
